Results published in patent US6495144B2, “EBNA2 peptides and methods of using same” (Johns Hopkins University School of Medicine, priority 1996, dated 2002).
Substitutions are numbered along the chain they refer to. Entries after “also recorded” stand apart in the source; their conditions may differ. Marks after values point to notes of the source that are not given here.

B1: del344-357: EBNA2 with glycine-arginine repeats removed by deletion of amino acids 344-357 (protein)
chain: MPTFYLALHGGQTYHLIVDTDSLGNPSLSVIPSNPYQEQLSDTPLIPLTIFVGENTGVPPPLPPPPPPPPPPPPPPPPPPPPPPPPPPSPPPPPPPPPPPQRRDAWTQEPSPLDRDPLGYDVGHGPLASAMRMLWMANYIVRQSRGDRGLILPQGPQTAPQARLVQPHVPPLRPTAPTILSPLSQPRLTPPQPLMMPPRPTPPTPLPPATLTVPPRPTRPTTLPPTPLLTVLQRPTELQPTPSPPRMHLPVLHVPDQSMHPLTHQSTPNDPDSPEPRSPTVFYNIPPMPLPPSQLPPPAAPAQPPPGVINDQQLHHLPSGPPWWPPICDPPQPSKTQGQSRGQGKSRDKQRKPGGPWRPEPNTSSPSMPELSPVLGLHQGQGAGDSPTPGPSNAAPVCRNSHTATPNVSPIHEPESHNSPEAPILFPDDWYPPSIDPADLDESWDYIFETTESPSSDEDYVEGPSKRPRPSIQ
B2: type B EBNA2 comprising amino acids 216-392: homologous CBF1 interaction domain of human type B EBNA2, in vitro translated (protein)
chain: GHQLSLPPHPPPHQSTPHCSSDSTGLPPPPTSYSIPSMTLSPEPLPPPAAPAHPLPGVIYDQQALPPTPGPPWWPPVRDPTPTTQTPPTNTKQGPDQGQGRGRWRGRGRSKGRGRMHKLPEPRRPGPDTSSPSMPQLSPVVSLHQGQGPENSPTPGPSTAGPVCRVTPSATPDISPI
B3: WW323SR (CR6): EBNA2 with tryptophans 323 and 324 in CR6 changed to SR (protein)
chain: MPTFYLALHGGQTYHLIVDTDSLGNPSLSVIPSNPYQEQLSDTPLIPLTIFVGENTGVPPPLPPPPPPPPPPPPPPPPPPPPPPPPPPSPPPPPPPPPPPQRRDAWTQEPSPLDRDPLGYDVGHGPLASAMRMLWMANYIVRQSRGDRGLILPQGPQTAPQARLVQPHVPPLRPTAPTILSPLSQPRLTPPQPLMMPPRPTPPTPLPPATLTVPPRPTRPTTLPPTPLLTVLQRPTELQPTPSPPRMHLPVLHVPDQSMHPLTHQSTPNDPDSPEPRSPTVFYNIPPMPLPPSQLPPPAAPAQPPPGVINDQQLHHLPSGPPSRPPICDPPQPSKTQGQSRGQSRGRGRGRGRGRGKGKSRDKQRKPGGPWRPEPNTSSPSMPELSPVLGLHQGQGAGDSPTPGPSNAAPVCRNSHTATPNVSPIHEPESHNSPEAPILFPDDWYPPSIDPADLDESWDYIFETTESPSSDEDYVEGPSKRPRPSIQ
B4: SR360VD (PKC): EBNA2 with mutation of the putative PKC phosphorylation site (protein)
chain: B3 chain with S323W, R324W, S360V, R361D
B5: PI326SR (CR6): EBNA2 with PI at 326 in CR6 changed to SR (protein)
chain: B3 chain with S323W, R324W, P326S, I327R
B6: GP320SR (CR6): EBNA2 with two non-hydrophobic residues GP at 320 in CR6 changed to SR (protein)
chain: B3 chain with G320S, P321R, S323W, R324W
B7: LGL389SRT (CR7): EBNA2 with LGL at position 389 in CR7 changed to SRT (protein)
chain: B3 chain with S323W, R324W, L389S, G390R, L391T

How the values were obtained:
[1] = system: EBV latency C promoter (Cp-CAT); assay: Cp-CAT transactivation by EBNA2 effector DNAs cotransfected in DG75 cells; assay type: cell-based, Epstein-Barr virus; settings: for % Transactivation: relative EBNA2 transactivation of the Cp, at DNA concentrations giving 50% acetylation for wild-type EBNA2, mutations in full-length EBNA2; for transactivation of Cp-CAT, dose-response, in words: 0-2.0 μg effector DNA, 2 μg target
Experimental: FIGS. 4A-4B are graphs that depict μg effector versus % acetylation for transactivation in DG75 cells of a Cp-CAT construction (Ling et al. (1993b), supra) cotransfected at 2 μg with increasing amounts (i.e., 0, 0.25, 0.5, 1.0 and 2.0 μg) of the indicated EBNA2 effector DNAs. Immunoblot analysis confirmed the equivalent expression of the different EBNA2 effector constructions in transfected cells.
FIGS. 7A-7B are graphs that depict μg effector versus fold-induction for cotransfection assays comparing the ability of type A EBNA2 and type B EBNA2 to transactivate expression from Cp-CAT (FIG. 7A) and CD23p-CAT (FIG. 7B) (Ling et al. (1994), supra) in DG75 cells. The target plasmids were transfected at a constant amount (2 μg) and the effector DNAs at increasing amounts of 0, 0.25, 0.5, 1.0 and 2.0 μg.
In order to correlate the effect of the mutations on CBF1 interaction measured in the in vitro binding assays with the effects on CBF1 interaction in vivo in cultured cells, the point mutations and the glycine-arginine deletion were incorporated into full-length EBNA2 proteins which were used to study EBNA2 targeting in transactivation assays. The mutant proteins were synthesized in equal abundance in transfected cells as assessed by Western blot analysis. FIGS. 4A and 4B compare the ability of wild-type and mutant EBNA2 proteins to transactivate expression from the EBV latency C promoter in a dose-response assay (Ling et al. (1993b), supra).

CBF1/RBPJk = biological target: T1, CBF1/RBPJk (Homo sapiens, UniProt Q06330); assay: EMSA of EBNA2/CBF1 complex formation with in vitro translated EBNA2 peptides; assay type: binding; settings: for behaviour in EMSA (competition for CBF1 complex, formation of supershifted EBNA2/CBF1 complex): equimolar in vitro translated peptides, Cp CBF1 binding site probe; for effect in reducing the amounts of EBNA2/CBF1 complex formed: fold, in words
T1 construct: EMSA using CBF1 purified by heparin-agarose chromatography; endogenous in cells; host or cells: CA46 cells (fractionated extract, heparin-agarose)
T1 sequence (Q06330 whole entry): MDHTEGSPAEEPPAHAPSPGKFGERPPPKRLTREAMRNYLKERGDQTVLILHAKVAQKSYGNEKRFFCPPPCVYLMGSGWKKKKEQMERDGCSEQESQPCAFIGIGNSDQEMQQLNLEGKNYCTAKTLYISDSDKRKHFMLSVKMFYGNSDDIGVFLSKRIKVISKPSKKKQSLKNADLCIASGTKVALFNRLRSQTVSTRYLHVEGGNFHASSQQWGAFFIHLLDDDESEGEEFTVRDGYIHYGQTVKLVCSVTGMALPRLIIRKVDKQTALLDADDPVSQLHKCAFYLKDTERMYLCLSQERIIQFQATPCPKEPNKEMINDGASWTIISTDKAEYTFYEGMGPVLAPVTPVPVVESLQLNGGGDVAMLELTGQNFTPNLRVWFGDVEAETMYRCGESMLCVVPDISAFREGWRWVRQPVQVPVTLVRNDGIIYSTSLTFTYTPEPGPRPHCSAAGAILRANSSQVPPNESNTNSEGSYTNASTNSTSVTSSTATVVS
Description: FIG. 3 is an autoradiogram that depicts the effect of mutations on the ability of an EBNA2 (i.e., E2) peptide comprising amino acids 252-425 to interact with CBF1/RBPJk: probe (lane 1); E2 only (lane 2); lysate (lane 3); CBF1 (lane 4); CBF1 and lysate (lane 5); CBF1 and E2 252-425 (lane 6); CBF1 and del376-425 (lane 7); CBF1 and del343-425 (lane 8); CBF1 and del252-366 (lane 9); CBF1 and del252-309, del398-425 (lane 10); CBF1 and del344-357 (lane 11); CBF1 and II307SR (CR5) (lane 12); CBF1 and GP320SR (CR6) (lane 13); CBF1 and WW323SR (CR6) (lane 14); CBF1 and PI326SR (CR6) (lane 15); CBF1 and SR360VD (PKC) (lane 16); and CBF1 and LGL389SRT (CR7) (lane 17). Results of an EMSA using CBF1 purified by heparin-agarose chromatography and a 30-base pair oligonucleotide probe containing the Cp CBF1 binding site (Ling et al. (1993a), supra) are shown. The wild-type EBNA2 and mutant EBNA2 peptides spanning amino acids 252-425 were in vitro transcribed and translated, and equimolar amounts were added to the binding reactions. Addition of unprogrammed reticulocyte lysate to the CBF1 extract (+lysate) produced a minor bandshift that migrated in the range of the E2/CBF1 complex. The EBNA2/CBF1 complexes (i.e., E2/CBF1 complexes) vary in mobility depending on the size of the added EBNA2 peptide.
FIG. 6 is an EMSA that compares the ability of type A EBNA2 (i.e., EBNA2 comprising amino acids 252-425) and the homologous domains of type B (i.e., EBNA2 comprising amino acids 216-392) and HVP EBNA2 (i.e., HBP EBNA2 comprising amino acids 288-470) to form complexes with CBF1/RBPJk. The EBNA2 peptides and CBF1/RPBPJk were prepared by in vitro transcription and translation. EBNA2 peptides were added with two-fold increases in amount (black triangles) to a binding mixture containing a constant amount of CBF1/RBPJk and a 30-base pair Cp CBF1 binding site probe. Symbols: P, probe only; R, reticulolysate.
The relative positions of the various functional domains the EBNA2 protein are depicted in FIG. 1. To define the amino acids required for interaction with CBF1, various synthetic peptides comprising the promoter targeting domain (i.e., the CBF1/RBPJk interaction domain) were constructed. The truncated and mutated peptides diagrammed in FIG. 2 were synthesized by in vitro transcription-translation, and were tested for their ability to form complexes with CBF1 that could be detected in an electrophoretic mobility shift assay (EMSA) (Ling et al., J. Virol., 69, 1944-1950 (1995)). The expressed peptides were tested using a fractionated extract of EBV negative lymphoblastoid CA46 cells (American Type Culture Collection, Rockville, Md.). The peptides were labeled with ^35S-methionine, and their integrity was confirmed by sodium dodecylsulfate sulfate-polyacrylamide gel electrophoresis (SDS-PAGE). To ensure that equal amounts of the EBNA2 peptides were added to each binding reaction mixture, the SDS-PAGE bands were quantitated using a Molecular Dynamics Phosphorimager, and the volume of the samples was adjusted on the basis of peptide size and the number of methionine residues.

[2] = linear range of the assay, 0.5 μg effector DNA

Molecule | % Transactivation [1] | behaviour in EMSA (competition for CBF1 complex, formation of supershifted EBNA2/CBF1 complex) (CBF1/RBPJk) | transactivation of Cp-CAT, dose-response, in words [1] | other results
B1 | 150% | did not negatively affect EBNA2/CBF1 complex formation | – | transactivation of Cp-CAT relative to wild-type EBNA2 [1, 2]: 150%; % Complex formation (CBF1/RBPJk; EBNA2/CBF1 supershifted complex relative to wild-type EBNA2(252-425), phosphoimager, reticulocyte lysate background subtracted): 100%; behaviour in EMSA (competition for CBF1 complex, formation of supershifted EBNA2/CBF1 complex) (CBF1/RBPJk; listed as glycine-arginine deletion): did not negatively affect complex formation in the EMSA
B2 | – | bound CBF1 comparably to type A EBNA2 | – | amount of peptide required to convert all the CBF1 to the supershifted complex, versus type A EBNA2 (CBF1/RBPJk; in vitro translated CBF1/RBPJk, two-fold increases of peptide): two-fold more
B3 | 0% | did not compete for the CBF1 complex and produced little or no EBNA2/CBF1 supershifted complex | inability of this mutant to transactivate the Cp even at high doses of effector | –
B4 | 110% | – | did not affect transactivation | reduction in EBNA2/CBF1 complex formation (CBF1/RBPJk; 252-425 peptide with mutation, relative to wild-type peptide): 40%; effect in reducing the amounts of EBNA2/CBF1 complex formed (CBF1/RBPJk): approximately two-fold
B5 | 2^c % | did not compete for the CBF1 complex and produced little or no EBNA2/CBF1 supershifted complex; also recorded: severely impaired the ability of the peptide to form a complex with CBF1 in an EMSA | – | transactivation of Cp-CAT relative to wild-type EBNA2 ([1]; highest levels of effector DNA): 20%; transactivation of Cp-CAT relative to wild-type EBNA2 [1, 2]: 2%
B6 | 120% | had no effect on the behavior of the peptide in the EMSA | mirrored that of wild-type EBNA2 | –
B7 | 100% | – | did not affect transactivation | effect in reducing the amounts of EBNA2/CBF1 complex formed (CBF1/RBPJk): approximately two-fold
